The assay concerns the target microtubules in LLCPK cells (pig (endogenous in LLCPK)) (UniProt P02550). Briefly: FRAP; living LLCPK cells expressing GFP-tau, 37°C; fluorescence recovery integrated along line scans on single photobleached microtubules; half time from a first-order rate constant (t1/2 = ln2/k).
UniProt P02550, sequence (P02550 whole entry, chain 1 of 2): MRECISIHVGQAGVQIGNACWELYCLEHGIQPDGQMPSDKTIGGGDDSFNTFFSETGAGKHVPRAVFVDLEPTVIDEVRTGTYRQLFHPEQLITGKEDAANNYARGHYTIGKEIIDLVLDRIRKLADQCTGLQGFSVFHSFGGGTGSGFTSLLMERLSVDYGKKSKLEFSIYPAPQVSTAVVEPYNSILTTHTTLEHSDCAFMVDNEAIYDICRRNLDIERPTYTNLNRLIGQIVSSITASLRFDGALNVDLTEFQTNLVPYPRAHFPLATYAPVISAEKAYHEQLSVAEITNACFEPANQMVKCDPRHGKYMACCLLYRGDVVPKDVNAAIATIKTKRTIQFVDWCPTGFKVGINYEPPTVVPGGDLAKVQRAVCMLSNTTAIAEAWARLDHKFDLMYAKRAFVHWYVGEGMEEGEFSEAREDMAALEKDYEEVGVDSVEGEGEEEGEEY
UniProt P02550, sequence (Q767L7 whole entry, chain 2 of 2, further chain): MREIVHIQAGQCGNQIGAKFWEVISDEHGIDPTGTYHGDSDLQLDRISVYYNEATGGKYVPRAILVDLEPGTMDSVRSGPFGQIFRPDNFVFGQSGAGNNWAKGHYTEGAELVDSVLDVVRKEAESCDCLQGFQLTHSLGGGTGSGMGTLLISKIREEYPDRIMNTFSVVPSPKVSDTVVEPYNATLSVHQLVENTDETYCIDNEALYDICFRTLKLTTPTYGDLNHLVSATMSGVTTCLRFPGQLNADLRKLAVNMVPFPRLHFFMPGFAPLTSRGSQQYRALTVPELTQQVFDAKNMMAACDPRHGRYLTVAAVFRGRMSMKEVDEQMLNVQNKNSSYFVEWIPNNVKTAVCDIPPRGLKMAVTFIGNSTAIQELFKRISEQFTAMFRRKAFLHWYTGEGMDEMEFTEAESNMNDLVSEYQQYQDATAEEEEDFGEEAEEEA

As to “GFP-tau (isoform with three microtubule-binding repeats) (natural protein)”, the half time of fluorescence recovery on microtubules was 6.8 s.

Values taken from publication PMC3610906.
